For assay [1], the target named is T1, human calcitonin receptors (T47D and MCF7-7 breast carcinoma cells) (human, UniProt P30988 25-474).
T1 construct: whole, on cells; also called calcitonin (T47D) receptors
T1 sequence (looked up): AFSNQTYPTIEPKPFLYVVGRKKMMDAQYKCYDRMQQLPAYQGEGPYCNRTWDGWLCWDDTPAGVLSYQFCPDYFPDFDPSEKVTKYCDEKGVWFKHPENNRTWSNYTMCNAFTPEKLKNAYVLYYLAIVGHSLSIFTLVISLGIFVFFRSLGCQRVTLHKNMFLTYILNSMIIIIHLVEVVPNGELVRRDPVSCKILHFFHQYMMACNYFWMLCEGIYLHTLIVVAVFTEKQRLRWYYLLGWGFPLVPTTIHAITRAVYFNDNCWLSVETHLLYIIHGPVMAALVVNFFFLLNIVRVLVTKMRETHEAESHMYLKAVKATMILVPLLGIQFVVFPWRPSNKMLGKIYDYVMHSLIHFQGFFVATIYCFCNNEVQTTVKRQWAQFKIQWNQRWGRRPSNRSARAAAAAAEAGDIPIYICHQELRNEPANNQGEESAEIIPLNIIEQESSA
In words: radioligand competition, [125I]salmon calcitonin on T47D cell membranes.

The target in assay [2] is T2, amylin receptors of rat nucleus accumbens membranes (rat).
T2 chain 1: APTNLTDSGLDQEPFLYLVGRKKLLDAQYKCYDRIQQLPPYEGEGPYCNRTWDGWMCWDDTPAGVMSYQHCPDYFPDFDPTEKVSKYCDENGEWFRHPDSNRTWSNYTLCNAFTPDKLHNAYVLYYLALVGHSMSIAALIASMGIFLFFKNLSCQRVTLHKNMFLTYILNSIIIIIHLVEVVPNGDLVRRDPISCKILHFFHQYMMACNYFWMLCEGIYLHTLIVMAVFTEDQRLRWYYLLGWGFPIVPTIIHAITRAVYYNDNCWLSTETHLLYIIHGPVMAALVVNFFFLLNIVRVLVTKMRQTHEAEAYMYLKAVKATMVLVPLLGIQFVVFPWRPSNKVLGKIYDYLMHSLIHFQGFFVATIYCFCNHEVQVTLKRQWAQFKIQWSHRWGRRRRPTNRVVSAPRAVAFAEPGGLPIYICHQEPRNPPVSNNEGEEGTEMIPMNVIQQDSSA
T2 chain 2: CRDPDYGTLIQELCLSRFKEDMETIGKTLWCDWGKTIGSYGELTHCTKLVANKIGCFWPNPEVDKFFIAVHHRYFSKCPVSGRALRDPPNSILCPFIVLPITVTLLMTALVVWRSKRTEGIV
In words: radioligand competition, 125I-BH-rat amylin on rat nucleus accumbens membranes. (In general: Displacement assays read how much labelled ligand stays bound in the presence of the test substance.)

Assay [3] has as its target T3, human CGRP receptors (SK-N-MC neuroblastoma cells) (human, UniProt Q16602 23-461; O60894 27-148).
T3 construct: whole, on cells; also called CGRP (SK-N-MC) receptors
In words: radioligand competition, [125I]human CGRP on SK-N-MC cell membranes.

For assay [4], the target named is T3, human CGRP receptors (SK-N-MC …). In words: radioligand competition, SK-N-MC membranes against rat nucleus accumbens membranes.
Assay [5] deals with T4, rat calcitonin C1a receptor (rat, UniProt P32214 25-516).
T4 sequence (looked up): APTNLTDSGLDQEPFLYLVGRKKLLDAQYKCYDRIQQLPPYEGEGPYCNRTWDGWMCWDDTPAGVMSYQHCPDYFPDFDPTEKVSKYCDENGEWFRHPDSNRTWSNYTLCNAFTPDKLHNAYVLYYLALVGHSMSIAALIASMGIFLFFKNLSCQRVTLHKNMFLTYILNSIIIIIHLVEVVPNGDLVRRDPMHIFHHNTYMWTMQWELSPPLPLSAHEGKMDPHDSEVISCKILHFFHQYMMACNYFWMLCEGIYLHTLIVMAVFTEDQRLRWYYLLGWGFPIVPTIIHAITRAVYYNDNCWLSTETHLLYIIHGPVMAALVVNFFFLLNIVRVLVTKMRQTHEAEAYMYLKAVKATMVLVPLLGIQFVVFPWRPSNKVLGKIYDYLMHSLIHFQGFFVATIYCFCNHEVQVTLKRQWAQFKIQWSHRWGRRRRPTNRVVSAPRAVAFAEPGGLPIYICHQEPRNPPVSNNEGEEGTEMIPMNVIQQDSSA
In words: cell-based or functional assay.

The target in assay [6] is T1, human calcitonin receptors (T47D and …). In words: cell-based or functional assay.

T3 sequence (Q16602 23-461, chain 1 of 2): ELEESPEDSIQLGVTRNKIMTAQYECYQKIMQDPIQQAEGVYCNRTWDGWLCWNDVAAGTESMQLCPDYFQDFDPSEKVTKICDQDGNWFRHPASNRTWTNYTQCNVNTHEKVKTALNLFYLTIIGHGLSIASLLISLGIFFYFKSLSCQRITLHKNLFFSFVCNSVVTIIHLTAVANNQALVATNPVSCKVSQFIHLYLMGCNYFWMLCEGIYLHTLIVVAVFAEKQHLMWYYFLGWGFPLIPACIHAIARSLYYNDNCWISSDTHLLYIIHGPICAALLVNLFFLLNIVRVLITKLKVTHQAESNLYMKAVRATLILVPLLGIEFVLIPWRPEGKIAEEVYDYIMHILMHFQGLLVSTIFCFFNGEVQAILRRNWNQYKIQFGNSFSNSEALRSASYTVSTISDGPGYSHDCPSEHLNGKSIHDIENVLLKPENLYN
T3 sequence (O60894 27-148, chain 2 of 2): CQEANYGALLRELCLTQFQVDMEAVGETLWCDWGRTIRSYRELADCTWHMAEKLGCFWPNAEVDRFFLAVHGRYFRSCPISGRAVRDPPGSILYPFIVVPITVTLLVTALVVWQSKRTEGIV

What is called IC50 is the concentration needed to halve the response being measured. As to LSTCVLGRLSQELHRLQTYPRTNTGSNTY (Synthetic 29-residue peptide) [Compound 1], the IC50 in assay [1] was found to be 0.22 nM; in assay [2], 0.25 nM; in assay [3], 160 nM. In assay [4], the “fold lower affinity than for the amylin receptors” value is ≥ 300 fold. In assay [5], the “EC50 of adenyl cyclase activity, cells expressing rat calcitonin C1a receptors” value was determined as 0.97 nM. Moreover, the “EC50 of cyclic AMP accumulation, T47D cells” value in assay [6] came to 2.2 nM.

The record behind these values is US6936584B1, “Mixed amylin activity compounds” (Amylin Pharmaceuticals, Inc., priority 1998, dated 2005).
